Square brackets hold non-standard residues; d marks the D form. Ends that are not written are not given here. Tyr(3-NO2) = N[C@@H](Cc1ccc(O)c([N+](=O)[O-])c1)C(=O)O; Phe(4-NO2) = N[C@@H](Cc1ccc([N+](=O)[O-])cc1)C(=O)O; Tyr(3,5-Br2) = N[C@@H](Cc1cc(Br)c(O)c(Br)c1)C(=O)O; Phe(4-CN) = N#Cc1ccc(C[C@H](N)C(=O)O)cc1; Phe(4-Cl) = N[C@@H](Cc1ccc(Cl)cc1)C(=O)O; Phe(4-F) = N[C@@H](Cc1ccc(F)cc1)C(=O)O; hPhe = N[C@@H](CCc1ccccc1)C(=O)O; Phg = N[C@H](C(=O)O)c1ccccc1
T1: CMG2 38-218 (Homo sapiens, UniProt P58335)
T1 chain: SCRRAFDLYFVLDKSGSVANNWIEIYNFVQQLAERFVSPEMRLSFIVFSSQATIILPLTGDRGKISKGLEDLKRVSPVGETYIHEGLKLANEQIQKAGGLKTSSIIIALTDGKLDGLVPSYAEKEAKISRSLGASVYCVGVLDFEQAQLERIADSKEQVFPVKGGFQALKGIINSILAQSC


Target: T1, CMG2 38-218
Experiment: microscale thermophoresis

Row | Binder | Kd
1 | CLR[dF]T [CLR(D-Phe)T] | 31 µM
2 | CLR[Phg]T [CLR(phenylglycine)T] | 59.6 µM
3 | CLR[Phe(4-CN)]T [CLR(4-cyano-F)T] | 61.4 µM
4 | CLR[hPhe]T [CLR(homophenylalanine)T] | 74 µM
5 | CLR[Phe(4-NO2)]T [CLR(4-nitro-F)T] | 36.2 µM
6 | CLR[Phe(4-F)]T [CLR(4-fluoro-F)T] | 49.9 µM
7 | CLR[Phe(4-Cl)]T [CLR(4-Cl-F)T] | 14 µM
8 | CLR[Tyr(3-NO2)]T [CLR(3-nitro-Y)T] | 112 µM
9 | CLR[Tyr(3,5-Br2)]T [CLR(3,5-dibromo-Y)T] | 60 µM

Target: T1, CMG2 38-218
Experiment: sandwich ELISA (competition with His6-PA 488-735)

Row | Binder | IC50
10 | CLRPT | 153 µM

Source: article PMC5465072 (2017)
